Columns and labels:
[1] = target: HK97 small terminase (Escherichia coli bacteriophage HK97); experiment: cryo-EM structure; small terminase with 31 bp DNA (cos 7-37), 1:2 protein:DNA, 25 mM Tris-HCl pH 7.5, 200 mM NaCl, 10 mM MgCl2; complex purified on S200 10/30; 3.0 Å
[2] = target: HK97 small terminase Arg5 to alanine mutant (Escherichia coli bacteriophage HK97); experiment: SEC; mutant proteins on a Superdex S200 10/30 column in 25 mM Tris-HCl, pH 7.5, 1 M NaCl (SI Appendix, Fig. S12)
[3] = target: HK97 small terminase Arg7 to alanine mutant (Escherichia coli bacteriophage HK97); experiment: as above
[4] = target: HK97 small terminase Arg107 to alanine mutant (Escherichia coli bacteriophage HK97); experiment: as above
[5] = target: HK97 small terminase Arg114 to alanine mutant (Escherichia coli bacteriophage HK97); experiment: as above
[6] = target: HK97 small terminase Arg128 to alanine mutant (Escherichia coli bacteriophage HK97); experiment: as above
[7] = target: HK97 small terminase Lys4 to alanine mutant (Escherichia coli bacteriophage HK97); experiment: as above
[8] = target: HK97 small terminase Lys100 to alanine mutant (Escherichia coli bacteriophage HK97); experiment: as above
[9] = target: HK97 small terminase triple mutant (Lys4, Arg5 and Arg7 to alanine) (Escherichia coli bacteriophage HK97); experiment: as above
small terminase WT [10] = target: T1, small terminase WT (Escherichia coli bacteriophage HK97, UniProt Q9MBW4 1-161); experiment: MST; conditions: rough upper limit of Kapp; mixed specific and nonspecific binding; 10 mM MgCl2; EMSA: 25 mM Tris-HCl pH 7.5, 200 mM NaCl, 10 mM MgCl2, RT 2-3 h, gel at 4 C (DNA 2 uM boundary mapping, 0.5 uM DNA mutants, 20 nM Alexa647 or 40 nM Cy5 DNA) …
T1 sequence: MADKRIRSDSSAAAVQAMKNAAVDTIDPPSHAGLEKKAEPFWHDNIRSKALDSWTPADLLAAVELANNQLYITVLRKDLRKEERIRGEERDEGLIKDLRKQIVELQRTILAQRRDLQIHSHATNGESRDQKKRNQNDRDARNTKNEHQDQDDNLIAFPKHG

small terminase WT [11] = target: T1, small terminase WT; experiment: EMSA; little influence on binding; EMSA: 25 mM Tris-HCl pH 7.5, 200 mM NaCl, 10 mM MgCl2, RT 2-3 h, gel at 4 C (DNA 2 uM boundary mapping, 0.5 uM DNA mutants, 20 nM Alexa647 or 40 nM Cy5 DNA); MST: same buffer + 0.005-0.01% Tween 20, 12 nM DNA, 20 C; conditions: protein: recombinant; tags: His-SUMO tag removed; chain copies: 9
small terminase WT [12] = target: T1, small terminase WT; experiment: cryoEM; 3.0 A; 28 of 31 bp modelled; DNA threaded through channel; EMSA: 25 mM Tris-HCl pH 7.5, 200 mM NaCl, 10 mM MgCl2, RT 2-3 h, gel at 4 C (DNA 2 uM boundary mapping, 0.5 uM DNA mutants, 20 nM Alexa647 or 40 nM Cy5 DNA); MST: same buffer + 0.005-0.01% Tween 20, 12 nM DNA, 20 C; conditions: protein: recombinant; tags: His-SUMO tag removed; chain copies: 9
small terminase WT [13] = target: T1, small terminase WT; experiment: EMSA; binding abolished; up to 1 uM protein; EMSA: 25 mM Tris-HCl pH 7.5, 200 mM NaCl, 10 mM MgCl2, RT 2-3 h, gel at 4 C (DNA 2 uM boundary mapping, 0.5 uM DNA mutants, 20 nM Alexa647 or 40 nM Cy5 DNA); MST: same buffer + 0.005-0.01% Tween 20, 12 nM DNA, 20 C; conditions: protein: recombinant; tags: His-SUMO tag removed; chain copies: 9
small terminase WT [14] = target: T1, small terminase WT; experiment: EMSA; up to 1 uM protein; EMSA: 25 mM Tris-HCl pH 7.5, 200 mM NaCl, 10 mM MgCl2, RT 2-3 h, gel at 4 C (DNA 2 uM boundary mapping, 0.5 uM DNA mutants, 20 nM Alexa647 or 40 nM Cy5 DNA); MST: same buffer + 0.005-0.01% Tween 20, 12 nM DNA, 20 C; conditions: protein: recombinant; tags: His-SUMO tag removed; chain copies: 9
small terminase WT [15] = target: T1, small terminase WT; experiment: EMSA; EMSA: 25 mM Tris-HCl pH 7.5, 200 mM NaCl, 10 mM MgCl2, RT 2-3 h, gel at 4 C (DNA 2 uM boundary mapping, 0.5 uM DNA mutants, 20 nM Alexa647 or 40 nM Cy5 DNA); MST: same buffer + 0.005-0.01% Tween 20, 12 nM DNA, 20 C; conditions: protein: recombinant; tags: His-SUMO tag removed; chain copies: 9

HK97 small terminase
stoichiometry N [1]: 9

HK97 small terminase Arg5 to alanine mutant (natural protein)
stoichiometry N [2]: 9

HK97 small terminase Arg7 to alanine mutant (natural protein)
stoichiometry N [3]: 9

HK97 small terminase Arg107 to alanine mutant (natural protein)
stoichiometry N [4]: 9

HK97 small terminase Arg114 to alanine mutant (natural protein)
stoichiometry N [5]: 9

HK97 small terminase Arg128 to alanine mutant (natural protein)
stoichiometry N [6]: 9

HK97 small terminase Lys4 to alanine mutant (natural protein)
stoichiometry N [7]: 9

HK97 small terminase Lys100 to alanine mutant (natural protein)
stoichiometry N [8]: 9

HK97 small terminase triple mutant (Lys4, Arg5 and Arg7 to alanine) (natural protein)
stoichiometry N [9]: 9

cos -20-80 (100 bp)
Kd (small terminase WT [10]): < 100 nM

B1: positions 24-29 A:T swapped (dsDNA)
DNA 1: ATTTAACGCTAACCCGAAAAAAATAGTTTTA
DNA 2: TAAAACTATTTTTTTCGGGTTAGCGTTAAAT
binding result (small terminase WT [11]): binds

B2: cos 7-37 (31 bp) (dsDNA)
DNA 1: ATTTAACGCTAACCCGATTTTTTTAGTTTTA
DNA 2: TAAAACTAAAAAAATCGGGTTAGCGTTAAAT
binding result (small terminase WT [12]): binds

B3: positions 26-27 G:C (dsDNA)
DNA 1: ATTTAACGCTAACCCGATTCCTTTAGTTTTA
DNA 2: TAAAACTAAAGGAATCGGGTTAGCGTTAAAT
binding result (small terminase WT [13]): no binding

B4: position 21 C:G to T:A (dsDNA)
DNA 1: ATTTAACGCTAACCTGATTTTTTTAGTTTTA
DNA 2: TAAAACTAAAAAAATCAGGTTAGCGTTAAAT
binding result (small terminase WT [14]): no binding

B5: 21 bp cos oligo (dsDNA)
DNA 1: ACGCTAACCCGATTTTTTTAG
DNA 2: CTAAAAAAATCGGGTTAGCGT
binding result (small terminase WT [15]): binds

B6: 25 bp cos oligo (dsDNA)
DNA 1: TAACGCTAACCCGATTTTTTTAGTT
DNA 2: AACTAAAAAAATCGGGTTAGCGTTA
binding result (small terminase WT [15]): binds
